Entries after “also recorded” stand apart in the source; their conditions may differ.
Assays:
[1] = system: 31-bp oligonucleotides containing the putative DUX4 binding site; test: Electromobility shift assay (EMSA); set-up: species or system human; conditions: in vitro translated protein; TRIM48, CSF1R, THE1D oligos
Experimental: EMSA was performed with ^32P-labeled 31-bp oligonucleotides from endogenous genomic sequences containing the putative DUX4 binding site as probes (sequences below; only forward shown). Radiolabeled probes were incubated with in vitro translated protein generated from pCS2-DUX4-fl or pCS2-DUX4-s^2 vectors using the TNT SP6 Coupled Wheat Germ Extract System (Promega) according to manufacturer's instructions. To obtain supershift of protein-DNA complexes, 0.1 μg of E14-3 anti-DUX4 rabbit monoclonal antibody was added to the mixtures. For competition experiments, excess unlabeled probes of either wild-type or mutant sequences were included in the binding reaction. The gels were prepared and run as previously described (Knoepfler et al., 1999).

FSHD cultured myoblasts = test: Dominant negative inhibition of DUX4-fl by lenti-DUX4-s in FSHD muscle cells; type: cell-based, human; conditions: lentiviral expression in FSHD muscle cells, 48 hours of differentiation
Experimental: Simultaneously, cells were transduced by lentivirus carrying DUX4-s or GFP along with 8 μg/mL polybrene. Cells were washed and changed to plain differentiation media after 24 hours. Cells were harvested for RNA after 48 hours of differentiation. Untransduced cells were used to assess baseline expression of DUX4-fl target genes.

[2] = system: Cultured control human myoblasts; test: Beta-defensin 3 and innate immune response, real-time qPCR of IFIH1, ISG20, DEFB103; type: cell-based; conditions: RT-qPCR, similar titers, FIG. 7A
Experimental: Cultured control human myoblasts were grown to 80% confluence and infected with equivalent titers of lenti-GFP, lenti-DUX4-s and lenti-DUX4-fl in growth media supplemented with 8 μg/mL polybrene. Expression of innate immune responsive genes including IFIH1 (MDA5), ISG20 and DEFB103 were assessed by real-time qPCR as previously described at 24 hours (primer sequences below). For conditioned media, cells were infected with lenti-DUX4-fl for 12 hours, thoroughly washed 3 times with PBS and switched to fresh growth media to condition for 12 hours. Control conditioned media was produced from cells not infected with any lentivirus. Myoblasts were infected with lenti-GFP in either control conditioned media, lenti-DUX4-fl conditioned media or regular growth media supplemented with 1 μM human β-defensin 3 (Peptides International, Louisville, Ky.). Expression of innate immune responsive genes were examined after 24 hours.

B1: DUX4-s: short splice form of DUX4 (SEQ ID NO:112), keeps the double-homeobox domains, lacks the C-terminal activation domain (protein, listed as Homo sapiens)
chain: MALPTPSDSTLPAEARGRGRRRRLVWTPSQSEALRACFERNPYPGIATRERLAQAIGIPEPRVQIWFQNERSRQLRQHRRESRPWPGRRGPPEGRRKRTAVTGSQTALLLRAFEKDRFPGIAAREELARETGLPESRIQIWFQNRRARHPGQGGRAPAQV
- binding to DUX4 core motifs [1]: specifically binds the same core binding site as DUX4-fl
- endogenous expression of DUX4 target genes (PRAMEF1, RFPL2, MBD3L2) (FSHD cultured myoblasts): inhibited the endogenous expression of the target genes; also recorded: blocks expression of these three DUX4-fl target genes
- induction of the innate immune response in myoblasts [2]: induced the innate immune response

Source: US20140242093A1, “METHODS AND COMPOSITIONS FOR MODULATING THE INNATE IMMUNE RESPONSE AND/OR MYOGENESIS IN A MAMMALIAN SUBJECT” (FRED HUTCHINSON CANCER RESEARCH CENTER, priority 2011, published 2014)
